Experimental data taken from PMC5597257.

What was measured:
[1] = molecular target: NbUBC2-EGFP (Nicotiana benthamiana); test: FRET or BRET; FRET by acceptor photobleaching in epidermal cells of N. benthamiana leaves; EGFP/GFP fusion as donor, DsRed fusion as acceptor; FRET efficiency (EF) in percent; without ChiLCV
[2] = molecular target: NbHUB1-GFP (Nicotiana benthamiana); test: as above
[3] = molecular target: Rep-DsRed (Chilli leaf curl virus); test: FRET or BRET; FRET by acceptor photobleaching in epidermal cells of N. benthamiana leaves, in the presence of ChiLCV, Rep proteins organised as punctate bodies
[4] = molecular target: NbUBC2-DsRed (Nicotiana benthamiana); test: FRET or BRET; FRET by acceptor photobleaching in epidermal cells of N. benthamiana leaves; EGFP/GFP fusion as donor, DsRed fusion as acceptor; FRET efficiency (EF) in percent; without ChiLCV

| Substance | FRET efficiency [1] | FRET efficiency [2] | FRET efficiency in the presence of ChiLCV [3] | FRET efficiency [4] |
| --- | --- | --- | --- | --- |
| Rep_(1-180)-DsRed (domain or fragment) | 40.5% | 44% | – | – |
| Rep_(1-120)-DsRed (domain or fragment) | 38% | 45% | – | – |
| Rep-DsRed (natural protein) | – | 58.7% | – | – |
| Rep-EGFP (natural protein) | – | – | 68.7% | 43.7% |
| Rep_(181-361)-DsRed (domain or fragment) | – | 58.5% | – | – |
